Patent US20230266324A1 (Hoffmann-La Roche, published 2023)

Molecular target: T1, PD-L1 (human, UniProt Q9NZQ7 19-290)
T1 construct: whole, on cells; Endogenous PD-L1 on in vitro generated human DCs (iDCs, mDCs); also called B7-H1; B7-4
Test: confocal imaging of co-localization on the surface of human mDCs

T1 sequence (Q9NZQ7 19-290): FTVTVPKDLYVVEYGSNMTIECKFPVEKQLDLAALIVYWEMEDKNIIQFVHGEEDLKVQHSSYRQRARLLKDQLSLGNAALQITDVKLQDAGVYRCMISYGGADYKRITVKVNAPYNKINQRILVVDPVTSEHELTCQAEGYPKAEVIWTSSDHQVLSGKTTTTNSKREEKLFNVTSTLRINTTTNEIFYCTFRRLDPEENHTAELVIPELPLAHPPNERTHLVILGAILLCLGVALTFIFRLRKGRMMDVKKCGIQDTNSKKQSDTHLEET

binding result: binds
B1: CD80 (ligand, human, UniProt P33681 35-288, looked up)
chain: VIHVTKEVKEVATLSCGHNVSVEELAQTRIYWQKEKKMVLTMMSGDMNIWPEYKNRTIFDITNNLSIVILALRPSDEGTYECVVLKYEKDAFKREHLAEVTLSVKADFPTPSISDFEIPTSNIRRIICSTSGGFPEPHLSWLENGEELNAINTTVSQDPETELYAVSSKLDFNMTTNHSFMCLIKYGHLRVNQTFNWNTTKQEHFPDNLLPSWAITLISVNGIFVICCLTYCFAPRCRERRRNERLRRESVRPV
notes: whole, on cells; Endogenous CD80 on human DCs, seen by confocal imaging; also called B7-1; B7.1
